± gives the uncertainty stated by the source.

This is an account of results in the supplement of paper PMC9732359.

The data set in a line: protein stability index of a GFP-peptide fusion (yeast GPS) (PSI 1-4); higher = more stable; sorted into four equal gates, so the index is relative within each strain. In outline: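 Tiled 17-residue peptides from yeast proteins were fused downstream of GFP on a plasmid that also expresses Cherry, and the pooled library was carried in yeast. Mid-log cultures grown in leucine-free medium were sorted into four equal gates by GFP/Cherry fluorescence ratio. Plasmids from each gate were PCR-amplified and Illumina-sequenced, and reads were assigned to strains by barcodes. Each peptide's protein stability index is the sum, over gates, of the gate's read frequency multiplied by its gate number.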

Regarding MADLQKQENSSRFTNVS [YMR153W/NUP53], the protein stability index is, setting by setting: (doa10∆) 3.23 ± 0.15; (pdr5∆) 3.1 ± 0.14; (san1∆) 2.36 ± 0.24; (ubr1∆) 3.31 ± 0.12.
MAGLMHFKKPDITVHGE [RRP45]: the protein stability index by setting is: (doa10∆) 2.89 ± 0.19; (pdr5∆) 2.14 ± 0.13; (san1∆) 1.76 ± 0.16; (ubr1∆) 1.25 ± 0.092.
For MAGSQFENGNITGEDEV [RRP45], in that order: 3.02 ± 0.095, 3.08 ± 0.1, 3.13 ± 0.13 and 2.95 ± 0.09.
Take MAIEIINDIRDDDIEKQ [YCG1]: the protein stability index (pdr5∆) turned out to be 3.07 ± 0.16, the protein stability index (san1∆) came out at 3.19 ± 0.11 and the protein stability index (ubr1∆) amounted to 3.27 ± 0.14.
In the case of MAKTLKDLDGWQVIITD [SIR3], the protein stability index by setting is: (doa10∆) 1.65 ± 0.16; (pdr5∆) 2.4 ± 0.12; (san1∆) 2.81 ± 0.14; (ubr1∆) 2.71 ± 0.14.
With MAKVHGSLARAGKVKSQ [RPS30A], the protein stability index (doa10∆) turned out to be 2.38 ± 0.067, the protein stability index (pdr5∆) was 2.7 ± 0.068, the protein stability index (san1∆) was found to be 2.49 ± 0.066 and the protein stability index (ubr1∆) was determined as 2.44 ± 0.054.
On the same counts, the results for MAPYLPGSRASSRFIKG [RPN2] are 2.44 ± 0.059, 2.66 ± 0.064, 2.45 ± 0.063 and 2.53 ± 0.044.
For the sequence MASNEVLVLRGTLEGHN [ASC1], the protein stability index reads like this: (doa10∆) 3.06 ± 0.17; (pdr5∆) 2.22 ± 0.16; (san1∆) 3.24 ± 0.13; (ubr1∆) 3.16 ± 0.25.
For MCGVIVKQYNKKWPQFY [SIN4], in that order: 1.65 ± 0.13, 1.99 ± 0.096, 1.62 ± 0.097 and 1.74 ± 0.046.
On the same counts, the results for MDKPLNFRILKSFTNDK [SRB5] are 3.15 ± 0.06, 3.11 ± 0.059, 3.14 ± 0.042 and 3.16 ± 0.036.
For MENIKKSIDSKTPEEVE [ISW2], in that order: 2.92 ± 0.17, 3.09 ± 0.23, 3.13 ± 0.089 and 3.23 ± 0.11.
As to MENILQRCKSNAISLQL [YIL149C/MLP2], the protein stability index worked out at 1.9 ± 0.046 (doa10∆), 2 ± 0.048 (pdr5∆), 2.05 ± 0.071 (san1∆) and 1.57 ± 0.046 (ubr1∆).
For MESEEVPLTKRYQHLEK [PCI8], the protein stability index reads like this: (doa10∆) 2.85 ± 0.075; (pdr5∆) 3.07 ± 0.067; (san1∆) 2.92 ± 0.048; (ubr1∆) 3.14 ± 0.065.
As for MEYLSGGEKTVAALALL [SMC1], the protein stability index is, setting by setting: (doa10∆) 2.2 ± 0.15; (pdr5∆) 2.41 ± 0.11; (san1∆) 1.68 ± 0.19; (ubr1∆) 2.3 ± 0.13.
MFKLGNFESPVLKELSR [YLR018C/POM34]: the protein stability index (pdr5∆) came out at 3.37 ± 0.23, the protein stability index (san1∆) amounted to 2.85 ± 0.15 and the protein stability index (ubr1∆) worked out at 2.66 ± 0.16.
As for MFLTRSEYDRGVSTFSP [PUP2], the protein stability index worked out at 3.58 ± 0.21 (doa10∆) and 3.34 ± 0.11 (ubr1∆).
Turning to MFNPLHESYCLPMDTNL [YMR129W/POM152], the protein stability index runs as follows: (doa10∆) 2.39 ± 0.059; (pdr5∆) 2.83 ± 0.055; (san1∆) 2.75 ± 0.058; (ubr1∆) 2.36 ± 0.056.
On the same counts, the results for MFQSQSQLQPQPQPQPQ [YDL088C/ASM4] are 2.48 ± 0.056, 2.49 ± 0.048, 2.29 ± 0.068 and 2.99 ± 0.04.
With MGDNSQLDFTEFDEQYG [SNF2], the protein stability index reads like this: (doa10∆) 3.31 ± 0.057; (pdr5∆) 3.15 ± 0.067; (san1∆) 3.31 ± 0.052; (ubr1∆) 3.14 ± 0.045.
On the same counts, the results for MGPLYQNFAEFMTKLLE [IRR1] are 2.27 ± 0.11, 1.82 ± 0.11, 3.03 ± 0.13 and 2.04 ± 0.15.
The sequence MHALKNRSEQNGQEQQG [RGR1] gave a protein stability index (pdr5∆) of 3.06 ± 0.21 and a protein stability index (ubr1∆) of 3.06 ± 0.21.
As for MILKLVCQVTKFGLLLQ [ECM29], the protein stability index (doa10∆) was 2.12 ± 0.066, the protein stability index (pdr5∆) was 2.28 ± 0.078, the protein stability index (san1∆) stood at 2.46 ± 0.072 and the protein stability index (ubr1∆) amounted to 1.61 ± 0.063.
As for MIQKVMEYLKSSKSLDL [RPN5], the protein stability index by setting is: (doa10∆) 2.6 ± 0.051; (pdr5∆) 1.55 ± 0.039; (san1∆) 2.3 ± 0.057; (ubr1∆) 2.46 ± 0.05.
As to MKDKEINIQKYNNNTIR [CSI1], the protein stability index reads like this: (doa10∆) 2.42 ± 0.22; (pdr5∆) 2.4 ± 0.15; (ubr1∆) 2.52 ± 0.1.
For the sequence MKEDGLSFVDIVLSKAA [SIR4], the protein stability index runs as follows: (doa10∆) 1.88 ± 0.1; (pdr5∆) 2.8 ± 0.07; (san1∆) 2.74 ± 0.12; (ubr1∆) 2.22 ± 0.053.
Consider MKHLGRSEGNPVIGVFQ [FAS2], for which the protein stability index runs as follows: (pdr5∆) 2.78 ± 0.08; (san1∆) 2.9 ± 0.094; (ubr1∆) 3.01 ± 0.093.
